Laboratory results reported in patent US20110091562A1 (GEORGIA TECH RESEARCH, published 2011).
Blank lines part the entries; values can stand above or below the binder they belong to.

Assays:
[1] = molecular target: T1, erythropoietin-producing hepatocellular (Eph) A2 receptor (UniProt P29317 24-976, limits assumed); assay: flow cytometry on Hey cells, 0.8 mg/mL fluorescent nanogels, 4 h incubation; reference is SCR-labeled nanogels
T1 construct: whole, on cells; Endogenous receptor on ovarian cancer cell lines
Method: (§1) Flow cytometry. Hey cells were plated at 2.5×10⁵ cells/well in a 12-well, cell culture plate. Cells were allowed to adhere overnight in an incubator at 37° C. in a 5% CO₂ atmosphere. Cells were washed, and fresh medium was added containing YSA-pNIPMAm or SCR-pNIPMAm nanogels at a concentration of 0.8 mg/mL and incubated for four hours. Following incubation, the cells were washed with PBS and removed from the plate by Trypsin-EDTA treatment. The cells were washed with PBS and fixed with 2% (v/v) paraformaldehyde. Cells were analyzed using a LSR Flow Cytometer (BD Biosciences). Data analysis was carried out using FlowJo software.

[2] = molecular target: T1, erythropoietin-producing hepatocellular …; assay: flow cytometry on Hey cells after 4 h incubation with fluorescent nanogels
Method: as §1

T1 sequence (P29317 24-976 limits assumed): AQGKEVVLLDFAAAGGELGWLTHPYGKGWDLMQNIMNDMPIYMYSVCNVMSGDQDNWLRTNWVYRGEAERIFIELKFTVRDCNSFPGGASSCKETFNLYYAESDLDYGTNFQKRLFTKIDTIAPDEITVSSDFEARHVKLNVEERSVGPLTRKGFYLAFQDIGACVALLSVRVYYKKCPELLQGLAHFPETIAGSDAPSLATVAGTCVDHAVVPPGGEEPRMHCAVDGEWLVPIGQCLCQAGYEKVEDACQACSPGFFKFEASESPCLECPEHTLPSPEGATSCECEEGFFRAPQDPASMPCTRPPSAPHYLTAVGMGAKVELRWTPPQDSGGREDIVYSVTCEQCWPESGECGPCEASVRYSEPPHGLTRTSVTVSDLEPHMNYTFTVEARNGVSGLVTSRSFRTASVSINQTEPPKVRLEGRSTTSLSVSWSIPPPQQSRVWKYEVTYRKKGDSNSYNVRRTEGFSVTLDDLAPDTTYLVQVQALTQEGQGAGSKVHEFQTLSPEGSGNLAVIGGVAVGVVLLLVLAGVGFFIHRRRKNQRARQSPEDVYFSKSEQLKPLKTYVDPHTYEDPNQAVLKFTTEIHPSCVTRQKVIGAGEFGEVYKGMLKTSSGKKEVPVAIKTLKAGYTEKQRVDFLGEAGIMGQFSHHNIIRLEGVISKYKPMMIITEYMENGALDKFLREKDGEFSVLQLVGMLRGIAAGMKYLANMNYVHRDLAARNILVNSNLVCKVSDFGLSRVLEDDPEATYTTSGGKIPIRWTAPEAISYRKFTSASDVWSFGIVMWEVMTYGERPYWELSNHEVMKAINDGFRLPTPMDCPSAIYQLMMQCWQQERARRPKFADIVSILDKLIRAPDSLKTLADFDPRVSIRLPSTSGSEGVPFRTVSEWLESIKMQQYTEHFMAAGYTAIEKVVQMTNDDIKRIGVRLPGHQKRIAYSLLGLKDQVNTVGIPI

fold fluorescence relative to SCR-labeled nanogels [1]: ~10 fold
B1: YSA peptide (YSAYPDSVPMMSC) conjugated to core/shell pNIPMAm nanogels (peptide)
peptide: YSAYPDSVPMMSC
modifications: C-terminal cysteine coupled by maleimide (epsilon-maleimidocaproic acid, EMCA) to primary amines of the nanogel shell
notes: The peptide that was made and conjugated carries the C-terminal Cys; also called YSA-conjugated nanogels; YSA-pNIPMAm nanogels

binding result [2]: no binding (tested: 0.8 mg/mL nanogels)
B2: Scrambled (SCR) peptide (DYPSMAMYSPSVC) conjugated to core/shell pNIPMAm nanogels (peptide)
peptide: DYPSMAMYSPSVC
modifications: C-terminal cysteine coupled by maleimide (EMCA) to primary amines of the nanogel shell
notes: Control peptide with the same amino acid composition as YSA, tethered to the same nanogels; also called SCR-pNIPMAm nanogels; SCR-labeled nanogels
